Data on seven variants can be found in article PMC9839807 (2022).

The chains are these.
B1: DACT1 (dishevelled binding antagonist of beta catenin 1), wildtype, Myc-tagged [human] / DVL2 (dishevelled segment polarity protein 2), Flag(3x)-tagged [not stated] (parent complex)
chain 1: MKPSPAGTAKELEPPAPARGEQRTAEPEGRWREKGEADTERQRTRERQEATLAGLAELEYLRQRQELLVRGALRGAGGAGAAAPRAGELLGEAAQRSRLEEKFLEENILLLRKQLNCLRRRDAGLLNQLQELDKQISDLRLDVEKTSEEHLETDSRPSSGFYELSDGASGSLSNSSNSVFSECLSSCHSSTCFCSPLEATLSLSDGCPKSADLIGLLEYKEGHCEDQASGAVCRSLSTPQFNSLDVIADVNPKYQCDLVSKNGNDVYRYPSPLHAVAVQSPMFLLCLTGNPLREEDRLGNHASDICGGSELDAVKTDSSLPSPSSLWSASHPSSSKKMDGYILSLVQKKTHPVRTNKPRTSVNADPTKGLLRNGSVCVRAPGGVSQGNSVNLKNSKQACLPSGGIPSLNNGTFSPPKQWSKESKAEQAESKRVPLPEGCPSGAASDLQSKHLPKTAKPASQEHARCSAIGTGESPKESAQLSGASPKESPSRGPAPPQENKVVQPLKKMSQKNSLQGVPPATPPLLSTAFPVEERPALDFKSEGSSQSLEEAHLVKAQFIPGQQPSVRLHRGHRNMGVVKNSSLKHRGPALQGLENGLPTVREKTRAGSKKCRFPDDLDTNKKLKKASSKGRKSGGGPEAGVPGRPAGGGHRAGSRAHGHGREAVVAKPKHKRTDYRRWKSSAEISYEEALRRARRGRRENVGLYPAPVPLPYASPYAYVASDSEYSAECESLFHSTVVDTSEDEQSNYTTNCFGDSESSVSEGEFVGESTTTSDSEESGGLIWSQFVQTLPIQTVTAPDLHNHPAKTFVKIKASHNLKKKILRFRSGSLKLMTTV
chain 2: MAGSSTGGGGVGETKVIYHLDEEETPYLVKIPVPAERITLGDFKSVLQRPAGAKYFFKSMDQDFGVVKEEISDDNARLPCFNGRVVSWLVSSDNPQPEMAPPVHEPRAELAPPAPPLPPLPPERTSGIGDSRPPSFHPNVSSSHENLEPETETESVVSLRRERPRRRDSSEHGAGGHRTGGPSRLERHLAGYESSSTLMTSELESTSLGDSDEEDTMSRFSSSTEQSSASRLLKRHRRRRKQRPPRLERTSSFSSVTDSTMSLNIITVTLNMEKYNFLGISIVGQSNERGDGGIYIGSIMKGGAVAADGRIEPGDMLLQVNDMNFENMSNDDAVRVLRDIVHKPGPIVLTVAKCWDPSPQAYFTLPRNEPIQPIDPAAWVSHSAALTGTFPAYPGSSSMSTITSGSSLPDGCEGRGLSVHTDMASVTKAMAAPESGLEVRDRMWLKITIPNAFLGSDVVDWLYHHVEGFPERREARKYASGLLKAGLIRHTVNKITFSEQCYYVFGDLSGGCESYLVNLSLNDNDGSSGASDQDTLAPLPGATPWPLLPTFSYQYPAPHPYSPQPPPYHELSSYTYGGGSASSQHSEGSRSSGSTRSDGGAGRTGRPEERAPESKSGSGSESEPSSRGGSLRRGGEASGTSDGGPPPSRGSTGGAPNLRAHPGLHPYGPPPGMALPYNPMMVVMMPPPPPPVPPAVQPPGAPPVRDLGSVPPELTASRQSFHMAMGNPSEFFVDVM

In this assay the parent is B1. Description: co-immunoprecipitation (IP: anti-Myc), band ratio quantified; parent: 1; read off a plot.
For the variant chain 1 P669A, the response was roughly 0.69.

Turning to chain 1 L591F, the response is roughly 0.7.

Take chain 1 G644D: the response was roughly 0.72.

In the case of chain 1 K630N, the response is roughly 0.68.

Take chain 1 T367K: the response was roughly 0.72.

Regarding chain 1 L823R, the response was roughly 0.6.

For the variant chain 1 R568K, the response is roughly 0.69.
